Results from publication PMC9068813, “Enhancer RNAs stimulate Pol II pause release by harnessing multivalent interactions to NELF”.

B1: Arc eRNA 1-100 (structured_RNA)
RNA: AAAACACAGCCGCCAGGGUGGGGGUGGCAGCCUUGAACGCCACCCUCUAACUGGCAUGGGCAUCUGAACUCUCAGCUCUGGGGGUGUCUCAUCGGCCAGC
B2: Nr4a1-(a) eRNA 1-200 (structured_RNA)
RNA: GCGGUGAGAGUGAUUUUGUAACUCUAAAGUUACAGAGGGUUUUGUUGUGUUUUUAAUCAAGAGCCCUGGUUUUGAUUUGUGGGUAAUCUUUCUUUAAACCUCGCCCAUUUCCGGCCUGGUGACCUGGGCCACUUUCUCAUGUUGACCCAGAUGAUCCUCAGUAGCAAGAACAAAAGGACAACAGAUGUGGAAACACUCAA
B3: Arc eRNA 1-200 (structured_RNA)
RNA: AAAACACAGCCGCCAGGGUGGGGGUGGCAGCCUUGAACGCCACCCUCUAACUGGCAUGGGCAUCUGAACUCUCAGCUCUGGGGGUGUCUCAUCGGCCAGCUGGCAGUAGCCCCCCCAACCCCACCCCUGAUGGAGAACUGCUCCUGUAUGAUCCAGCCCAGUGGGCGCACAGGGAGUUGGUAGGUGGGCACUCAGACUGG
B4: Nr4a1-(a) eRNA 1-100 (structured_RNA)
RNA: GCGGUGAGAGUGAUUUUGUAACUCUAAAGUUACAGAGGGUUUUGUUGUGUUUUUAAUCAAGAGCCCUGGUUUUGAUUUGUGGGUAAUCUUUCUUUAAACC
B5: Nr4a1-(b) eRNA 1-200 (structured_RNA)
RNA: AGUAGGGGCAUGGCUCGCCCGAGGCUCGGUGCUGCCCCGCCGCCCGCCGCGUUCCUUCCGGCUUGGUGUUCCGGUGGCGGGACCAGGGAAGGGAAGCUCGGGCCAAAUCCGGUCUCGGGCGAGGUGACAGAAAUUUGGAAUCUGACACCGGAGGAUGGCUGAGCUCCGGCUCCUCUGGGAGUGCAAUUACGGACUUCGCA

What was measured:
Details in all cases: protein: recombinant; tags: His-tag (Ni-NTA purified); copies: 1;1;1;1
[1] = target: T1, NELF-EΔRRM complex (NELFΔRRM) (UniProt Q9H3P2;Q8WX92;Q8IXH7;P18615 1-528;1-628;1-590;1-261+333-380, internal_change); test: EMSA (NELF release from PEC); apparent Kd; NELF in PEC on N1; 20 mM Na-HEPES pH 7.4, 100 mM NaCl, 25 mM KCl, 3 mM MgCl2, 2 mM DTT; assembly 30 °C, eRNA incubation 15-20 min at room temperature; 3.5% native PAGE 0.5x TBE at 4 °C; PEC about 0.1 µM NELF 0.15 µM
T1 sequence (Q9H3P2 whole entry, stated change not applied, chain 1 of 4): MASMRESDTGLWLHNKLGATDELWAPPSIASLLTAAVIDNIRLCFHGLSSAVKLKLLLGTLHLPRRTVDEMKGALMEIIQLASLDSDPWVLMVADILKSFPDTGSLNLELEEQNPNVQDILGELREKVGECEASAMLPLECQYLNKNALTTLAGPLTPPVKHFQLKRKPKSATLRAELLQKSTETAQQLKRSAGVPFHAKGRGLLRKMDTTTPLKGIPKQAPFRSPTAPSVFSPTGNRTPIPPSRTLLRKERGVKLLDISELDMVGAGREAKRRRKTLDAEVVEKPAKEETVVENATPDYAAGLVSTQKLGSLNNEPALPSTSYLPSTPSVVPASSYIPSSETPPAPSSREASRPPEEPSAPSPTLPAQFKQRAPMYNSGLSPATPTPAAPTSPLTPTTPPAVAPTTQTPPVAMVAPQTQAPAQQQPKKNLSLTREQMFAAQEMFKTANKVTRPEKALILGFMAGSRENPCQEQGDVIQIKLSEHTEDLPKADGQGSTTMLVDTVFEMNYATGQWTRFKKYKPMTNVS
T1 sequence (Q8WX92 other isoform, or with tags, fused parts or gaps | mutant, chain 2 of 4): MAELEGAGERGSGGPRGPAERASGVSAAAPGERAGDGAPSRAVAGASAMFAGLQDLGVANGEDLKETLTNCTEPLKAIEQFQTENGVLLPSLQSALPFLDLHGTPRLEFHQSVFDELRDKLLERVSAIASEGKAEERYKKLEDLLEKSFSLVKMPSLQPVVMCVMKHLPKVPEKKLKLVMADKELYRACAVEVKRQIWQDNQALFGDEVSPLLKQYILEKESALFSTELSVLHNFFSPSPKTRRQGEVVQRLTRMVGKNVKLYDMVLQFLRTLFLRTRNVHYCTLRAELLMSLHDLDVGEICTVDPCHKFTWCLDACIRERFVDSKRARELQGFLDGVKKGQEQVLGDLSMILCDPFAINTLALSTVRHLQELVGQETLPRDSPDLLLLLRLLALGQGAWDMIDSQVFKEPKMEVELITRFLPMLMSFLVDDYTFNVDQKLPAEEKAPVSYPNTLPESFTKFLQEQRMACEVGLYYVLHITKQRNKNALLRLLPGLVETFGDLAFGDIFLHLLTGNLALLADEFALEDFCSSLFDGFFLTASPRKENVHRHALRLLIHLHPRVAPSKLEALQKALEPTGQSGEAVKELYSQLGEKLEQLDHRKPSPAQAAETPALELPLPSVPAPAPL
T1 sequence (Q8IXH7 whole entry, stated change not applied, chain 3 of 4): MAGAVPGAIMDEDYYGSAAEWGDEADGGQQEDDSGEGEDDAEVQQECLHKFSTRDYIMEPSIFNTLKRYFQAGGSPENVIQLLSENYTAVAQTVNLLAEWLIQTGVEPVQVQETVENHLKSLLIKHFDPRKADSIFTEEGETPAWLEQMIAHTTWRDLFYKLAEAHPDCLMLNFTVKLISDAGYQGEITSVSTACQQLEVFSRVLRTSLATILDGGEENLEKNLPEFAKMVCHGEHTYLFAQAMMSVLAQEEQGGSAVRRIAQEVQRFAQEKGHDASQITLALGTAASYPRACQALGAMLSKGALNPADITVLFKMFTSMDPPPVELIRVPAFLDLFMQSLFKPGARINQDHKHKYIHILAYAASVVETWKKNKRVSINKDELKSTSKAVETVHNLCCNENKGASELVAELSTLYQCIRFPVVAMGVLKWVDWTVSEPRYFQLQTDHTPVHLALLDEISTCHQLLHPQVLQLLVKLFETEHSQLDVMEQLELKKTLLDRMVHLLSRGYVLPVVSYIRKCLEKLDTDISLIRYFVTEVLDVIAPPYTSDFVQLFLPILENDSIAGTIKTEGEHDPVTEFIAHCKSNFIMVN
T1 sequence (P18615 other isoform, or with tags, fused parts or gaps | mutant, chain 4 of 4): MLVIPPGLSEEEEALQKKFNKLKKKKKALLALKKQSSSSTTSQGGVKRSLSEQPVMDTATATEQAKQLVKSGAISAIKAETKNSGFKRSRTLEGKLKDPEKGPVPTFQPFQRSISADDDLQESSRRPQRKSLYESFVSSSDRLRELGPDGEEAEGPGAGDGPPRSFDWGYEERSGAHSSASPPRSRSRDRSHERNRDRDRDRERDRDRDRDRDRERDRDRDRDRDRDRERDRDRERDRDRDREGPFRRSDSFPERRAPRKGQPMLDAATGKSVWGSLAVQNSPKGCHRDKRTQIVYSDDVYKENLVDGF

[2] = target: NELF double mutant (patch + ΔRRM) (UniProt Q9H3P2;Q8WX92;Q8IXH7;P18615 1-528;1-628;1-590;1-261+333-380, R291Q;K315M;K371M;K372M;K374M;K384M;K388M;R419Q;R506Q;internal_change); test: EMSA (NELF release from PEC); large molar excess; 20 mM Na-HEPES pH 7.4, 100 mM NaCl, 25 mM KCl, 3 mM MgCl2, 2 mM DTT; assembly 30 °C, eRNA incubation 15-20 min at room temperature; 3.5% native PAGE 0.5x TBE at 4 °C; PEC about 0.1 µM NELF 0.15 µM
NELF double mutant (patch + ΔRRM), sequence (Q9H3P2 whole entry, stated change not applied, chain 1 of 4): as the sequence (Q9H3P2 whole entry, stated change not applied, chain 1 of 4) above
NELF double mutant (patch + ΔRRM), sequence (Q8WX92 other isoform, or with tags, fused parts or gaps with the stated changes, chain 2 of 4): as the sequence (Q8WX92 other isoform, or with tags, fused parts or gaps | mutant, chain 2 of 4) above
NELF double mutant (patch + ΔRRM), sequence (Q8IXH7 whole entry R291Q/K315M/K371M/K372M/K374M/K384M/K388M/R419Q/R506Q, chain 3 of 4): as the sequence (Q8IXH7 whole entry, stated change not applied, chain 3 of 4) above, with R291Q, K315M, K371M, K372M, K374M, K384M, K388M, R419Q, R506Q counted along it
NELF double mutant (patch + ΔRRM), sequence (P18615 other isoform, or with tags, fused parts or gaps with the stated changes, chain 4 of 4): as the sequence (P18615 other isoform, or with tags, fused parts or gaps | mutant, chain 4 of 4) above

[3] = target: T1, NELF-EΔRRM complex (NELFΔRRM); test: EMSA (NELF release from PEC); release not abolished; 20 mM Na-HEPES pH 7.4, 100 mM NaCl, 25 mM KCl, 3 mM MgCl2, 2 mM DTT; assembly 30 °C, eRNA incubation 15-20 min at room temperature; 3.5% native PAGE 0.5x TBE at 4 °C; PEC about 0.1 µM NELF 0.15 µM

| Binder | Kd [1] [µM] | binding result [2] | binding result [3] |
| --- | --- | --- | --- |
| B1 | 7.8 | – | – |
| B2 | – | no binding | – |
| B3 | 0.33 | no binding | – |
| B4 | – | – | binds |
| B5 | – | no binding | – |
